According to patent US11643448B2 (JAPAN SCIENCE AND TECHNOLOGY AGENCY, priority 2013, dated 2023):
Like-named read-outs stand apart in the source and are kept apart here.

Columns and labels:
[1] = biological target: T1, Aβ1-42 (Homo sapiens, UniProt P05067); assay: Thioflavin T fluorescence assay of aggregation; assay type: biochemical; conditions: Aβ1-42 20 μM, 37° C., incubation time of 3 hours and 6 hours
Method: A part of the reaction mixture (10 μL) was added to a 50 mM glycine-NaOH buffer (pH 8.5, 400 μL) containing thioflavin T (5 μM), and the resultant mixture was immediately mixed to measure a fluorescence intensity of thioflavin T. In the fluorescence intensity measurement, an excitation wavelength was 440 nm, and a fluorescence wavelength was 470 nm.
A phosphate buffer having the same composition was reacted with no irradiation to provide a sample “native Aβ” as a control. Aggregation of each sample was evaluated by thioflavin T assay (it is known that fluorescence intensity of thioflavin T corresponds to the amount of an aggregate being rich in β sheet structure) (FIG. 11).

[2] = biological target: T1, Aβ1-42; assay: Atomic force microscope analysis of fibril formation; assay type: biochemical; conditions: Aβ1-42 20 μM, 37° C.
Method: A phosphate buffer (10 mM, pH 7.4) in which Aβ1-42 (20 μM) and riboflavin (4 μM) had been dissolved was incubated at 37° C. under irradiation with a fluorescent lamp (24 W, natural white, a distance between a light source and a reaction mixture was about 3 cm). A part of the reaction mixture (10 μL) was added on mica, incubated at room temperature for 3 minutes, washed with 20 μL of water, and air dried. The measurement was carried out using Nano Wizard II (JPK instruments AG, Berlin, Germany) in a tapping mode in air at room temperature.

[3] = biological target: T1, Aβ1-42; assay: Circular dichroism spectroscopy analysis; assay type: biochemical; conditions: Aβ1-42 20 μM, 37° C.
Method: A phosphate buffer (10 mM, pH7.4) in which Aβ1-42 (20 μM) and riboflavin (4 μM) had been dissolved was incubated at 37° C. under irradiation with a fluorescent lamp (24 W, natural white, a distance between a light source and a reaction mixture was about 3 cm). A part of the reaction mixture was analyzed using Model 202SF (AVIV Biomedical, Inc., Lakewood, N.J.).

[4] = biological target: native Aβ (Homo sapiens, UniProt P05067); assay: Inhibition of aggregation of native Aβ by oxidized Aβ (atomic force microscope analysis); assay type: biochemical; conditions: native Aβ 20 μM with oxidized Aβ 20 μM, 37° C., 6 hours, compared with native Aβ alone
Method: A part of the reaction mixture (10 μL) was added on mica, incubated at room temperature for 3 minutes, washed with 20 μL of water, and air dried. The measurement was carried out using Nano Wizard II (JPK instruments AG, Berlin, Germany) in a tapping mode in air at room temperature.

[5] = test system: PC12 cells; conditions: 10 µM
Method: PC12 cells, i.e., rat adrenal medulla-derived pheochromocytoma (purchased from RIKEN, Japan), were used. A phosphate buffer (pH 7.4) in which Aβ1-42 (20 μM) and riboflavin (4 μM) had been dissolved was incubated at room temperature under irradiation with a fluorescent lamp (24 W, natural white, a distance between a light source and a reaction mixture was about 3 cm). A part of the reaction mixture (50 μL) was added to a cell culture medium (50 μL) (final Aβ concentration was 10 μM), and the mixture was incubated at 37° C. for 48 hours under 5% CO2 atmosphere. Cells were observed and photographed using an inverted microscope DMI6000 B (Leica Microsystems GmbH, Wetzlar, Germany) equipped with a digital camera DFC360 FX (Leica Microsystems GmbH). A cell count reagent containing WST-8 (2-(2-methoxy-4-nitrophenyl)-3-(4-nitrophenyl)-5-(2,4-disulfonyl)-2H-tetrazolium, monosodium salt) (10 μL) was added to the mixture. The mixture was incubated at 37° C. for 6 hours under 5% CO2 atmosphere. Thereafter, absorbance at 450 nm (reference wavelength: 655 nm) was measured by iMark™ plate reader (Bio-Rad Laboratories, Inc., Hercules, Calif.).

[6] = test system: PC12 cells; assay: Cell viability after photo-oxygenation reaction in the presence of cells (WST-8); assay type: cell-based, rat; conditions: light irradiation, regardless of presence or absence of Aβ (f and h)
Method: In a plate well in which the PC12 cells had been seeded, a phosphate buffer (pH 7.4, 50 μL) containing 20 μM of Aβ and a catalyst (Catalyst 1 in 4 μM or Catalyst 2 in 20 μM) was irradiated with 500 nm LED (light emitting diode) at 37° C. for 15 minutes. After the reaction, 50 μL of a HEPES buffer solution containing a 0.1% horse serum-containing medium was added to thereto (final Aβ concentration: 10 μM).
In order to achieve Aβ selective oxidation, a peptide having a high affinity for Aβ, D-[Lys-Leu-Val-Phe(4-phenyl)-Phe] (SEQ ID NO: 3) was identified, and was bonded to flavin as an affinity tag of Aβ (Catalyst 2 in FIG. 17). Catalyst 2 or riboflavin itself (Catalyst 1 in FIG. 17) was added to a phosphate buffer containing Aβ, and the mixture was irradiated with light in the presence of cells. 500 nm LED was used as a light source, and light was irradiated at 37° C. for 15 minutes. […] After the oxidation reaction, the cells were further incubated for 2 days, and the cell viability was determined thereafter (bar graph in FIG. 17). […] It is conceivable that the cells were damaged due to non-specific oxidation. On the other hand, when Catalyst 2 was used in the absence of Aβ under the condition j, 50% or more of the cells survived after the light irradiation. […]

[7] = biological target: Aβ (Homo sapiens, UniProt P05067); assay: Oxidation of Aβ by catalyst under light irradiation; assay type: biochemical; conditions: Catalyst 1 4 μM or Catalyst 2 20 μM, Aβ 20 μM, 500 nm LED, 37° C., 15 minutes
Aβ, sequence (P05067 672-713 limits assumed): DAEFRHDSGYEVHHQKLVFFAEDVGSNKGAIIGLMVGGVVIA

T1 sequence (P05067 672-713): as the sequence (P05067 672-713 limits assumed) above
native Aβ, sequence (P05067 672-713): as the sequence (P05067 672-713 limits assumed) above

Compound	fluorescence intensity of thioflavin T [1]	fibril formation [2]	secondary structure by circular dichroism [3]	amyloid fibril content [4]	cell viability [5]	cell viability [6]	extent of Aβ oxidation [7]
oxidized Aβ: Aβ1-42 oxidized with riboflavin under light; Tyr10, His13, His14 and Met35 oxidized, one to eight oxygen atoms added	significantly lower than that of the native Aβ	hardly	random coil structure was maintained	significantly decreased	≥ 50%		
Cc1cc2nc3c(=O)[nH]c(=O)nc-3n(C[C@H](O)[C@H](O)[C@H](O)CO)c2cc1C [Catalyst 1, riboflavin]						almost all cells died	about 60%
